Measurements: patent US7538195

Target: biotinylated full-length human IGF-I receptor (human) (UniProt P08069)
Assay: ELISA titration, similar to that of the whole antibody

Sequence of Fab fragment of EM164 antibody (VH): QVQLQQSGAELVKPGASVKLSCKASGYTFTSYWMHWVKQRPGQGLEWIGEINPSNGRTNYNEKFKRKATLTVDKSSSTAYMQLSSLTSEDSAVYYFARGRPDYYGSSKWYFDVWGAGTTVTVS
Sequence of Fab fragment of EM164 antibody (VL): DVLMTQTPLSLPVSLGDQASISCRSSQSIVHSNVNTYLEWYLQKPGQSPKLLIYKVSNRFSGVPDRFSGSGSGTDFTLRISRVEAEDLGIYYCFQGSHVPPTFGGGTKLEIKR

Kd: 0.3 nM
Substance: Fab fragment of EM164 antibody
